# Reference: patent US11858974 (RESQ BIOTECH, dated 2024)
# B1: AβC5-116 (cyclo-TAFDR) (peptide)
# peptide: TAFDR
# modifications: head-to-tail cyclic peptide (cyclo-TAFDR), no free termini
# notes: Made by solid-phase synthesis (Genscript)
# B2: SOD1C5-4 (cyclo-TWSVW) (peptide)
# peptide: TWSVW
# modifications: head-to-tail cyclic peptide (cyclo-TWSVW), no free termini
# notes: Made by solid-phase synthesis (CPC Scientific); Backbone-cyclised pentapeptide; also called SODC5-4; selected cyclic pentapeptide SOD1C5-4
# B3: AβC5-34 (cyclo-SASPT) (peptide)
# peptide: SASPT
# modifications: head-to-tail cyclic peptide (cyclo-SASPT), no free termini
# notes: Made by solid-phase synthesis (Genscript); also called Aβ-targeting cyclic 5-peptide number 34
# Target: T1, SOD1(A4V), Ala4Val variant of human Cu/Zn superoxide dismutase 1 (human, UniProt P00441 2-154, A4V)
# T1 construct: Isolated from E. coli Origami 2(DE3) (pETSOD1(A4V) or pASK-SOD1 vectors); also called isolated SOD1(A4V); mutant SOD1
# T1 sequence (P00441 2-154 A5V): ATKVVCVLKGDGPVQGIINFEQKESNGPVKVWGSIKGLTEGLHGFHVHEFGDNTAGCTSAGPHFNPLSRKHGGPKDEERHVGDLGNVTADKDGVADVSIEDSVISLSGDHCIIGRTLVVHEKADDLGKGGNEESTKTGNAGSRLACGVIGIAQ
# Experiment: CD spectroscopy of isolated SOD1(A4V) incubated with synthetic cyclic peptide
# Method: Appropriate amounts of synthetic cyclic peptides were added to either 40 µM SOD1(A4V) or 50 µM Aβ solutions at the desired cyclic peptide:target protein molar ratio. SOD1(A4V) structural changes were monitored for 90 d at 25° C., under quiescent conditions. Aβ structural changes were monitored for 30 d at 33° C. under quiescent conditions. CD spectra in the range 190-260 nm were recorded on a JASCO J-715 spectropolarimeter (Jasco Co., Japan) using quartz cuvettes with 1 mm path length. Each reported spectrum is the average of three scans at a rate of 100 nm·min^-1 and a resolution of 0.5 nm.
row,Binder,binding result
1,B1,no binding
2,B2,binds
3,B3,no binding
